Bridge positions count the residues as written; N and C are the ends. Square brackets hold non-standard residues; d marks the D form. Ends that are not written are not given here. * marks the point of attachment. (Trifluoro)l/L = 5,5,5-trifluoro-DL-leucine; Pro(trans-4-F) = O=C(O)[C@@H]1C[C@@H](F)CN1; Oic = O=C(O)[C@@H]1C[C@@H]2CCCC[C@@H]2N1; Cyclobutylacetic = O=C(CC1CCC1)*; Hyp = O=C(O)[C@@H]1C[C@@H](O)CN1; NMeI = CC[C@H](C)[C@H](NC)C(=O)O; tBuAla = CC(C)(C)C[C@H](N)C(=O)O; Gly(cBu) = N[C@H](C(=O)O)C1CCC1; Pen = CC(C)(S)[C@H](N)C(=O)O; NMeC = CN[C@@H](CS)C(=O)O; Orn = NCCC[C@H](N)C(=O)O; Lac = C[C@H](O)C(=O)O; Ahx = NCCCCCC(=O)O; Sar = CNCC(=O)O
Assays:
[1] = molecular target: T1, recombinant human MASP1 active protease (amino acids 297-699, C-terminal His Tag) (human, UniProt P48740 297-699); experiment: cell-based or functional assay
T1 sequence: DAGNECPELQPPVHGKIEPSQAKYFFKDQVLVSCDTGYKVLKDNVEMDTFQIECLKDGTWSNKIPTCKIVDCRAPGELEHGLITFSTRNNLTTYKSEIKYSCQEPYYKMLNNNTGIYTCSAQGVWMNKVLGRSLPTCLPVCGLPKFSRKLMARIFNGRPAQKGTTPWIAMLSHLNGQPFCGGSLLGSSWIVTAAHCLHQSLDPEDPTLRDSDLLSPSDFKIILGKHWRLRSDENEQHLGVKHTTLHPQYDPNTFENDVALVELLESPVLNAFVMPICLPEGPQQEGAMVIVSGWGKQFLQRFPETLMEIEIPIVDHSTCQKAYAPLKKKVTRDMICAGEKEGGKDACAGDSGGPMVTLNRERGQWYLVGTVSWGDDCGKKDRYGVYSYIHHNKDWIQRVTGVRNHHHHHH

[2] = molecular target: recombinant human MASP2 active protease (amino acids 297-686, C-terminal His Tag) (human, UniProt O00187 297-686); experiment: cell-based or functional assay
recombinant human MASP2 active protease (amino acids 297-686, C-terminal His Tag), sequence (O00187 other isoform, or with tags, fused parts or gaps limits assumed): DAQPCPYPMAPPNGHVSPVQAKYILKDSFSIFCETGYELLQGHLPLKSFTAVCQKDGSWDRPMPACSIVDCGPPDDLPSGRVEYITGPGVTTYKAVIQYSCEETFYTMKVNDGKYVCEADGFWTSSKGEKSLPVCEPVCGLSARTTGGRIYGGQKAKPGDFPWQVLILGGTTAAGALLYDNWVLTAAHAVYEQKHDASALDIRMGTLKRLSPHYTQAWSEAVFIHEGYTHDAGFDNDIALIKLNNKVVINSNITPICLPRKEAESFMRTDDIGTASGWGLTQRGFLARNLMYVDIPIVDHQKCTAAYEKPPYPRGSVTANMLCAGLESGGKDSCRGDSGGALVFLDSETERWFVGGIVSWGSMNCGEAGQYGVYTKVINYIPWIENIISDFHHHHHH

B1: Example 386: ((N-Me)G)-IC+SRSLPPIC+IpD-OH (peptide)
peptide: [Sar]ICSRSLPPICI[dP]D-OH
modifications: disulfide 3-11; N-terminus assumed
SMILES: CC[C@H](C)[C@H](NC(=O)CNC)C(=O)N[C@H]1CSSC[C@@H](C(=O)N[C@H](C(=O)N2CCC[C@@H]2C(=O)N[C@@H](CC(=O)O)C(=O)O)[C@@H](C)CC)NC(=O)[C@H]([C@@H](C)CC)NC(=O)[C@@H]2CCCN2C(=O)[C@@H]2CCCN2C(=O)[C@H](CC(C)C)NC(=O)[C@H](CO)NC(=O)[C@H](CCCNC(=N)N)NC(=O)[C@H](CO)NC1=O
[1]
  human MASP1 IC50: 43 nM
[2]
  human MASP2 IC50: 750 nM

B2: Example 390: ((N-Me)G)-IC+SRSLP-((trans-4-Fluoro)P)-IC+IPD-OH (peptide)
peptide: [Sar]ICSRSLP[Pro(trans-4-F)]ICIPD-OH
modifications: disulfide 3-11; N-terminus assumed
SMILES: CC[C@H](C)[C@H](NC(=O)CNC)C(=O)N[C@H]1CSSC[C@@H](C(=O)N[C@H](C(=O)N2CCC[C@H]2C(=O)N[C@@H](CC(=O)O)C(=O)O)[C@@H](C)CC)NC(=O)[C@H]([C@@H](C)CC)NC(=O)[C@@H]2C[C@@H](F)CN2C(=O)[C@@H]2CCCN2C(=O)[C@H](CC(C)C)NC(=O)[C@H](CO)NC(=O)[C@H](CCCNC(=N)N)NC(=O)[C@H](CO)NC1=O
[1]
  human MASP1 IC50: 47 nM
[2]
  human MASP2 IC50: 1300 nM

B3: Example 389: AIC+SRSLPP-(Cyclobutylglycine)-C+IPD-NH2 (peptide)
peptide: AICSRSLPP[Gly(cBu)]CIPD-NH2
modifications: disulfide 3-11; N-terminus assumed
SMILES: CC[C@H](C)[C@H](NC(=O)[C@H](C)N)C(=O)N[C@H]1CSSC[C@@H](C(=O)N[C@H](C(=O)N2CCC[C@H]2C(=O)N[C@@H](CC(=O)O)C(N)=O)[C@@H](C)CC)NC(=O)[C@H](C2CCC2)NC(=O)[C@@H]2CCCN2C(=O)[C@@H]2CCCN2C(=O)[C@H](CC(C)C)NC(=O)[C@H](CO)NC(=O)[C@H](CCCNC(=N)N)NC(=O)[C@H](CO)NC1=O
[1]
  human MASP1 IC50: 46 nM
[2]
  human MASP2 IC50: 330 nM

B4: Example 387: (Lactic)-IC+SRS-((tBu)A)-PPIC+IPD-NH2 (peptide)
peptide: [Lac]ICSRS[tBuAla]PPICIPD-NH2
modifications: disulfide 3-11; N-terminus assumed
SMILES: CC[C@H](C)[C@H](NC(=O)[C@H](C)O)C(=O)N[C@H]1CSSC[C@@H](C(=O)N[C@H](C(=O)N2CCC[C@H]2C(=O)N[C@@H](CC(=O)O)C(N)=O)[C@@H](C)CC)NC(=O)[C@H]([C@@H](C)CC)NC(=O)[C@@H]2CCCN2C(=O)[C@@H]2CCCN2C(=O)[C@H](CC(C)(C)C)NC(=O)[C@H](CO)NC(=O)[C@H](CCCNC(=N)N)NC(=O)[C@H](CO)NC1=O
[1]
  human MASP1 IC50: 44 nM
[2]
  human MASP2 IC50: 2200 nM

B5: Example 380: GIC+SRSL-(Hyp)-PIC+IPD-OH (peptide)
peptide: GICSRSL[Hyp]PICIPD-OH
modifications: disulfide 3-11; N-terminus assumed
SMILES: CC[C@H](C)[C@H](NC(=O)CN)C(=O)N[C@H]1CSSC[C@@H](C(=O)N[C@H](C(=O)N2CCC[C@H]2C(=O)N[C@@H](CC(=O)O)C(=O)O)[C@@H](C)CC)NC(=O)[C@H]([C@@H](C)CC)NC(=O)[C@@H]2CCCN2C(=O)[C@@H]2C[C@@H](O)CN2C(=O)[C@H](CC(C)C)NC(=O)[C@H](CO)NC(=O)[C@H](CCCNC(=N)N)NC(=O)[C@H](CO)NC1=O
[1]
  human MASP1 IC50: 40 nM
[2]
  human MASP2 IC50: 810 nM

B6: Example 379: ((N-Me)I)-C+SRS-((tBu)A)-PPI-(Pen)+IP-NH2 (peptide)
peptide: [NMeI]CSRS[tBuAla]PPI[Pen]IP-NH2
modifications: disulfide 2-10; N-terminus assumed
SMILES: CC[C@H](C)[C@H](NC)C(=O)N[C@H]1CSSC(C)(C)[C@@H](C(=O)N[C@H](C(=O)N2CCC[C@H]2C(N)=O)[C@@H](C)CC)NC(=O)[C@H]([C@@H](C)CC)NC(=O)[C@@H]2CCCN2C(=O)[C@@H]2CCCN2C(=O)[C@H](CC(C)(C)C)NC(=O)[C@H](CO)NC(=O)[C@H](CCCNC(=N)N)NC(=O)[C@H](CO)NC1=O
[1]
  human MASP1 IC50: 39 nM
[2]
  human MASP2 IC50: 360 nM

B7: Example 383: (Ahx)-IC+SRSLP-(Oic)-IC+I-OH (peptide)
peptide: [Ahx]ICSRSLP[Oic]ICI-OH
modifications: disulfide 3-11; N-terminus assumed
SMILES: CC[C@H](C)[C@H](NC(=O)[C@@H]1CSSC[C@H](NC(=O)[C@@H](NC(=O)CCCCCN)[C@@H](C)CC)C(=O)N[C@@H](CO)C(=O)N[C@@H](CCCNC(=N)N)C(=O)N[C@@H](CO)C(=O)N[C@@H](CC(C)C)C(=O)N2CCC[C@H]2C(=O)N2[C@@H](C[C@@H]3CCCC[C@@H]32)C(=O)N[C@@H]([C@@H](C)CC)C(=O)N1)C(=O)O
[1]
  human MASP1 IC50: 40 nM
[2]
  human MASP2 IC50: 800 nM

B8: Example 392: (2-Hydroxyisobutyric)-IC+SRS-((tBu)A)-PPIC+IPD-NH2 (peptide)
peptide: {2‑Hydroxyisobutyric}-ICSRS[tBuAla]PPICIPD-NH2
modifications: disulfide 2-10
[1]
  human MASP1 IC50: 47 nM
[2]
  human MASP2 IC50: 80 nM

B9: Example 382: (Cyclobutylacetic)-IC+SRS-((tBu)A)-PPI-((N-Me)C)+I-NH2 (peptide)
peptide: Cyclobutylacetic-ICSRS[tBuAla]PPI[NMeC]I-NH2
modifications: disulfide 2-10
SMILES: CC[C@H](C)[C@H](NC(=O)[C@@H]1CSSC[C@H](NC(=O)[C@@H](NC(=O)CC2CCC2)[C@@H](C)CC)C(=O)N[C@@H](CO)C(=O)N[C@@H](CCCNC(=N)N)C(=O)N[C@@H](CO)C(=O)N[C@@H](CC(C)(C)C)C(=O)N2CCC[C@H]2C(=O)N2CCC[C@H]2C(=O)N[C@@H]([C@@H](C)CC)C(=O)N1C)C(N)=O
[1]
  human MASP1 IC50: 40 nM
[2]
  human MASP2 IC50: 41 nM

B10: Example 381: ((N-Me)G)-(Orn)-(Orn)-(Orn)-IC+SRS-((tBu)A)-PPI-(Pen)+IP-NH2 (peptide)
peptide: [Sar][Orn][Orn][Orn]ICSRS[tBuAla]PPI[Pen]IP-NH2
modifications: disulfide 6-14; N-terminus assumed
SMILES: CC[C@H](C)[C@H](NC(=O)[C@H](CCCN)NC(=O)[C@H](CCCN)NC(=O)[C@H](CCCN)NC(=O)CNC)C(=O)N[C@H]1CSSC(C)(C)[C@@H](C(=O)N[C@H](C(=O)N2CCC[C@H]2C(N)=O)[C@@H](C)CC)NC(=O)[C@H]([C@@H](C)CC)NC(=O)[C@@H]2CCCN2C(=O)[C@@H]2CCCN2C(=O)[C@H](CC(C)(C)C)NC(=O)[C@H](CO)NC(=O)[C@H](CCCNC(=N)N)NC(=O)[C@H](CO)NC1=O
[1]
  human MASP1 IC50: 40 nM
[2]
  human MASP2 IC50: 550 nM

B11: Example 388: IC+SRSLP-(Oic)-I-(Pen)+IPQ-OH (peptide)
peptide: ICSRSLP[Oic]I[Pen]IPQ-OH
modifications: disulfide 2-10; N-terminus assumed
SMILES: CC[C@H](C)[C@H](N)C(=O)N[C@H]1CSSC(C)(C)[C@@H](C(=O)N[C@H](C(=O)N2CCC[C@H]2C(=O)N[C@@H](CCC(N)=O)C(=O)O)[C@@H](C)CC)NC(=O)[C@H]([C@@H](C)CC)NC(=O)[C@@H]2C[C@@H]3CCCC[C@@H]3N2C(=O)[C@@H]2CCCN2C(=O)[C@H](CC(C)C)NC(=O)[C@H](CO)NC(=O)[C@H](CCCNC(=N)N)NC(=O)[C@H](CO)NC1=O
[1]
  human MASP1 IC50: 45 nM
[2]
  human MASP2 IC50: 750 nM

B12: Example 384: GIC+SRS-((Trifluoro)l/L)-PPIC+IPD-OH (peptide)
peptide: GICSRS[(Trifluoro)l/L]PPICIPD-OH
modifications: disulfide 3-11
[1]
  human MASP1 IC50: 42 nM
[2]
  human MASP2 IC50: 260 nM

B13: Example 393: ((2S,3S)-2-[(3S)-2-oxopiperazin-1-yl]-3-methylpentanoic acid)-C+SRSLPPIC+IAD-OH (peptide)
peptide: {(2S,3S)‑2‑((3S)-2-oxopiperazin-1-yl)‑3‑methylpentanoic acid}-CSRSLPPICIAD-OH
modifications: disulfide 1-9
[1]
  human MASP1 IC50: 49 nM
[2]
  human MASP2 IC50: 3800 nM
